In US20160060325A1 (POMONA RICERCA S R L, published 2016):

Columns and labels:
[1] = target: hemagglutinin (HA) of influenza A virus H3N2, strain A/Victoria/3/75 (influenza A virus H3N2, strain …, UniProt P03435 17-567); assay: cell-based or functional assay
[2] = target: hemagglutinin (HA) of influenza A virus H1N1, strain A/Malaya/302/54 (influenza A virus H1N1, strain …); assay: cell-based or functional assay
[3] = target: hemagglutinin (HA) of influenza A virus H1N1, strain A/PR/8/34 (influenza A virus H1N1, strain A/PR/8/34, UniProt P03452 18-565); assay: cell-based or functional assay
hemagglutinin (HA) of influenza A virus H1N1, strain A/PR/8/34, sequence (P03452 18-565 limits assumed): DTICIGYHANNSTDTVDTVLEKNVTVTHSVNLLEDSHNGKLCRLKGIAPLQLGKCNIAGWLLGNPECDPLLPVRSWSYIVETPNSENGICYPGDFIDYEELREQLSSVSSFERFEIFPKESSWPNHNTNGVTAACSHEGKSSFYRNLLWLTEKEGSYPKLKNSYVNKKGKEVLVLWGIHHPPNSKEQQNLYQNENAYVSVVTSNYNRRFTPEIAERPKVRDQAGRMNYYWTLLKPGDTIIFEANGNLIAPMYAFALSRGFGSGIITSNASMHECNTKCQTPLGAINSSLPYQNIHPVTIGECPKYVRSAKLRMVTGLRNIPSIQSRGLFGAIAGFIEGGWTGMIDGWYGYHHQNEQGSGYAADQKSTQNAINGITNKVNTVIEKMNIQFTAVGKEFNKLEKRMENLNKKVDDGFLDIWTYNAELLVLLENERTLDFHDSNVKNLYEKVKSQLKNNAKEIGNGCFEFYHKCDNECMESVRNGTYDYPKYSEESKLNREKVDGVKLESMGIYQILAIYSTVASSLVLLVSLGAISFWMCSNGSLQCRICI

[4] = target: hemagglutinin (HA) of influenza A virus H3N2, strain A/PC/1/73 (influenza A virus H3N2, strain A/PC/1/73, UniProt Q1PUD9 17-566); assay: cell-based or functional assay
hemagglutinin (HA) of influenza A virus H3N2, strain A/PC/1/73, sequence (Q1PUD9 17-566): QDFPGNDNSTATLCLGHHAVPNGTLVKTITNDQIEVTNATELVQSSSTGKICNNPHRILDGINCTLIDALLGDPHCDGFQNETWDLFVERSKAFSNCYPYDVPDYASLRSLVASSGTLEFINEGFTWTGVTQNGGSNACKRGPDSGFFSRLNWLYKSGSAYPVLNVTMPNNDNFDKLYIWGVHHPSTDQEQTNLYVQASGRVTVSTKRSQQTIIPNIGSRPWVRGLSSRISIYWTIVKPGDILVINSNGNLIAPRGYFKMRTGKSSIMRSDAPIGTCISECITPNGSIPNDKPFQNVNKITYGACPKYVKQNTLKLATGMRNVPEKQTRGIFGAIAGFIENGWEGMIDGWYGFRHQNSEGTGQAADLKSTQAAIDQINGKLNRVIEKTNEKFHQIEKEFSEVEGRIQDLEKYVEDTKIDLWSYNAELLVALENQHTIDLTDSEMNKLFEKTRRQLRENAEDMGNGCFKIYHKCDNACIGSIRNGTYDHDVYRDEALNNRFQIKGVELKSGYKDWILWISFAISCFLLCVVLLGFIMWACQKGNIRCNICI

[5] = target: HA2 subunit of hemagglutinin (individual subunit, Western blot) (influenza A virus H1N1, strain A/PR/8/34, UniProt P03452 344-565); assay: Western blot
HA2 subunit of hemagglutinin (individual subunit, Western blot), sequence (P03452 344-565 limits assumed): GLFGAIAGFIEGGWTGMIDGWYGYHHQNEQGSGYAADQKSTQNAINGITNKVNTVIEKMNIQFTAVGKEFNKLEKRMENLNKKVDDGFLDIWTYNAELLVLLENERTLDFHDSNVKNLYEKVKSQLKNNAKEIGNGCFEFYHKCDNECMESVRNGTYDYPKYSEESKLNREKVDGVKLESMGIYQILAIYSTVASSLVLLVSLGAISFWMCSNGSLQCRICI

hemagglutinin (HA) of influenza A virus H3N2, strain A/Victoria/3/75, sequence (P03435 17-567 limits assumed): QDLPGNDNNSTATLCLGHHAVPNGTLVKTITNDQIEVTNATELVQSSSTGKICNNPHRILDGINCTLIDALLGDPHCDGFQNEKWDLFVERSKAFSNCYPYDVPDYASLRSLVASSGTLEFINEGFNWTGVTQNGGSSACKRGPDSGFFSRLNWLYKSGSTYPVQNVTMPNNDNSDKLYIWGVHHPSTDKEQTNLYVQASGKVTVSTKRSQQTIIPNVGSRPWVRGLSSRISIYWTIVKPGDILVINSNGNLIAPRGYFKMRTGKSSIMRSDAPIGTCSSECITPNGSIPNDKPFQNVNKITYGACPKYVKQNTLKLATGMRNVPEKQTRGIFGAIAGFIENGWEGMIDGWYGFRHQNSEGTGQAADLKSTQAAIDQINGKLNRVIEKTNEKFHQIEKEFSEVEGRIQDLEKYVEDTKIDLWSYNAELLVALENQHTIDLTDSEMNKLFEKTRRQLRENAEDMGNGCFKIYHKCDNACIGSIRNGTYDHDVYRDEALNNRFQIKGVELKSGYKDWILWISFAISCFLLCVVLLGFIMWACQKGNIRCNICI

B1: Fab28 (monoclonal antibody produced by clone INF28, human Fab fragment) (Fab, V domains shown)
VH: LEESGGGVVQPGRSLRLSCAASGFPFSSYGMHWVRQAPGKGLEWVAGVSYDGSYKYYADSVKGRFTISRDSSKSTLYLQMNSLRPEDTAVYYCARPSAIFGIYIILNGLDVWGQGTTVTVSS
VL: ELTQSPSSVSASVGDRVTITCRATQGISSWLAWYQQKPGKPPKLLIFGASSLQSGVPSRFSGSGSGTDFTLTISSLQPEDFATYFCQQAHSFPLTFGGGTKVEIK
For B1, the “IC50, neutralization by plaque reduction assay, H3N2 A/Victoria/3/75” value [1] was roughly 20 µg/mL, the “IC50, neutralization by plaque reduction assay, H1N1 A/Malaya/302/54” value [2] was less than 2.5 µg/mL and the “IC50, neutralization by plaque reduction assay, H1N1 A/PR/8/34” value [3] was less than 2.5 µg/mL. For the same binder, the “IC50, neutralization by plaque reduction assay, H3N2 A/Port Chalmers/1/73” value [4] was roughly 20 µg/mL and the binding result [5] was “no binding”.
